# Patent US10526691B2, “Functionalized surface” (priority 2015, dated 2020)
# Ends that are not written are not given here.
# Tests used:
# [1] = test system: S. epidemridis; assay: Crystal violet absorbance of bacteria adhering to peptide-coated nitrided steel; type: cell-based; settings: overnight at 37° C., FIG. 14
# Method: Nitrided steel was incubated with a solution of an antimicrobial peptide having the sequence RRIYGRGYIRR (SEQ ID NO: 1) (25 µl, 10 mg/ml/cm^2) at room temperature for 1 hour with a HBTU/DIEA catalyst in DMF to produce a coated surface.
# Coated surfaces were inoculated with […] bacterial cells (S. epidemridis) and incubated overnight at 37° C. The surfaces were then washed with PBS and stained using Crystal Violet ([…]) for 15 minutes at room temperature. The surfaces were washed three times to remove any residual stain and the stain lifted in 70% ethanol. The absorbance of crystal violet was read at 560 nm to quantify the level of stain (FIG. 14). The amount of stain is directly related to the number of bacteria.
# [2] = Peptide attachment to nitrided / nitrocarburised steel types, fluorescence microscopy pixel count; type: physicochemical; settings: FIG. 1
# Method: Nitrided metal surfaces were incubated overnight at room temperature on a rotamixer in a solution comprising a 9:0.5:0.5 ratio of dimethylformamide (DMF), DIPIA and HBTU, respectively, and 0.5 µg/ml of the peptide […] (SEQ ID NO: 5) tagged with a fluorescent label. Following incubation, surfaces were washed with DMF, which was replenished every 5 minutes for 50 minutes, followed by saline, which was also replenished every 5 minutes for 50 minutes, before being left to air dry.
# (§1) The peptide percentage surface coverage of the metal was assessed by the use of fluorescent peptides and microscopy. Peptide coated metal was viewed by a fluorescence microscope at an exposure of 1.55 s using a 10× objective. Nine images for each 1 cm^2 piece of steel were obtained. Images were analysed using ImageJ software (NIH, MD, USA). The threshold from control images, obtained from nitrided metal which had not been treated with peptide, was adjusted until all of the pixels were removed, leaving an image with no staining. This acted as a control baseline. Images from corresponding experimental samples were then adjusted to this threshold value and the residual pixel count then recorded as a measure of peptide attachment.
# [3] = Peptide coverage of nitrided steel after environmental, cleaning or coating treatments, fluorescence microscopy; type: physicochemical
# Method: as §1
# Mild steel was nitrided using a standard process for 19 hours at 440° C. by Metaltech. The peptide […] tagged with a fluorescent label was immobilized on the surface of the nitrided steel as described in Example 1. Peptide-coated steel was incubated in the appropriate environmental treatment at room temperature for a suitable time which depended on the treatment used. Samples were washed with saline following treatment and peptide attachment analysed by microscopy as detailed in Example 1.
# Mild steel was nitrided using a standard process by Metaltech. The peptide […] (SEQ ID NO: 5) tagged with a fluorescent label was immobilized on the surface of the nitrided steel as described in Example 1. Peptide-coated steel was incubated in the appropriate environmental treatment at room temperature for a suitable time which depended on the treatment used. Samples were washed with saline following treatment and peptide attachment analysed by microscopy as detailed in Example 1.
# Steel was nitrided or plasma ferretic nitrocarburised as described in Example 1, after which the peptide […] (SEQ ID NO: 5), tagged with a fluorescent label was immobilised on the nitrided surface as described in Example 1.
# Peptide-coated alpha steel samples were incubated in various standard cleaning or coating treatments at room temperature, for a suitable time which depended on the treatment used, in order to determine if any of these treatments affected the attachment of the peptide to the steel. […] This decrease may be partly accounted for by loss of fluorescence over the period of 3 weeks as the steel pieces were repeatedly exposed to light.
# [4] = test system: colony forming unit (CFU) counts; assay: CFU count on peptide-coated versus control nitrided α2 steel attached to areas with high predicted CFU counts; settings: α2 steel coated with unlabelled peptide; swabs on days 1, 2, 7, 8 and 9; all areas tested; FIG. 7
# Method: α2 steel was prepared using a standard nitriding process and coated with 1 µg/ml of the unlabelled peptide […] (SEQ ID NO: 5) using the method as described in Example 1. Peptide coated, or control uncoated steel samples were then attached to areas where high colony forming unit (CFU) counts were predicted (e.g. toilet seat, kitchen tap etc.). Cotton wool buds, dipped in saline, were used to swab surfaces on days 1, 2, 7, 8 and 9. Buds were placed in sterelin tubes and used to inoculate blood agar plates, following which plates were incubated for 48 hours at 37° C. before CFU counts were taken.
# [5] = Peptide fluorescence on nitrided titanium over 1 to 4 weeks in PBS; type: physicochemical; settings: FIG. 8; for change of pixel number: nitrided titanium in PBS
# Method: Having established the durability and the efficacy of immobilized peptides on a steel surface, the efficacy of peptides immobilized on a titanium surface was assessed. Nitrided titanium was prepared by Metaltech. […] (SEQ ID NO: 5), tagged with a fluorescent label, was immobilised on the surface of the nitrided titanium as described previously. Peptide-coated samples were incubated in PBS solution at room temperature for between 1 and 4 weeks, following which fluorescence, and the resulting pixel number above threshold, was assessed as described previously by fluorescence microscopy.
# [6] = Peptide fluorescence on nitrided titanium after environmental treatments; type: physicochemical; settings: FIG. 9
# Method: The durability of immobilized peptide on the surface of nitrided titanium was assessed following different environmental treatments, as shown in FIG. 9. […] (SEQ ID NO: 5)-coated titanium was incubated in control PBS solution, trypsin, Dettola or treated with sandpaper at room temperature for a suitable time which depended on the treatment used. The mean pixel number above the threshold was then assessed by fluorescence microscopy. Importantly, peptide fluorescence was retained after any of the environmental treatments, indicating a strong and durable interaction between peptide and metal.
# [7] = test system: bacteria; assay: Bacterial growth (absorbance) on peptide-coated nitrided titanium used as growth plate; type: cell-based; settings: antimicrobial-peptide-coated nitrided titanium, in comparison to the controls; FIG. 10
# Method: Nitrided titanium was prepared by Metaltech, and coated as described previously with the peptide […] (SEQ ID NO: 5), aside from a control (peptide) group in which nitrided titanium was coated with a non-antimicrobial peptide, and a control (titanium) group where the nitrided titanium remained uncoated. A positive control group, consisting of uncoated tissue culture plastic, was also used. The surfaces were washed and used as growth plates for bacteria. One group of antimicrobial peptide-coated titanium surfaces was immediately used as a growth plate for bacteria (treatment (immediate)). Another antimicrobial peptide-coated titanium group (treatment (environment)) was treated with PBS, followed by trypsin/EDTA, followed by Dettol followed by sandpapering, following which the surfaces were used as a growth plate for bacteria. The Absorbance relates to the bacteria number growing on the surface after incubation (FIG. 10). Low values indicate no bacterial growth, while high values indicate high numbers of bacteria.
# [8] = test system: bacteria; assay: Peptide-coated nitrided steel surfaces in a hospital unit over three months, bacteria counts
# Method: A nitrided steel surface was coated with the peptide […] (SEQ ID NO: 5). The surface was dip-coated in a mixture of the peptide (3 µl of 10 mg/ml peptide per cm^2 of metal) and a catalyst (HBTU/DIEA mix) which adhered the peptide to the surface. Coating was carried out at room temperature for 12 hours.
# Coated and uncoated steel surfaces were installed in a hospital unit, in the Accident and Emergency room, Operating Theatre, Ward 1 and the associated bathroom. Control surfaces and coated surfaces were situated in identical locations and tested over three months. After use the samples and data collected were sent to the University of Birmingham for analysis.
# [9] = test system: bacteria; assay: Peptide-coated nitrided steel surfaces on door handles, city hospital Outpatients area, three months
# Method: A further study was carried out in the Outpatients area of a city hospital. This is a very busy area of the hospital and sees a high volume of patient and staff traffic. The peptide used was […] (SEQ ID NO: 5), and the coated steel surfaces were prepared as in Example 8.
# Control and coated surfaces were placed on door handles in the Outpatients area. […] We saw 1 colony growth from the surfaces, which is believed to be due to the frequency of use of the surfaces. Surfaces were touched on average every 2 minutes during an observation period and, in a lot of cases, the surfaces had been touched immediately prior to the swabbing being undertaken.
# [10] = test system: bacteria; assay: Long term study of peptide-coated surfaces on taps in a medical school, one year; settings: taps in toilets of a medical school; after 12 months; FIG. 13
# Text: The peptide-coated surfaces described in Examples 8 and 9 were installed in a medical school. The surfaces were placed on taps in the toilets and were swabbed over a period of one year.
sequence,measurement,setting,value
RRIYGRGYIRR (RRYIGRGYIRR) [antimicrobial peptide coated on nitrided steel],number of bacteria adhering to the surface (crystal violet absorbance at 560 nm),[1],significantly reduce the number of bacteria adhering to the surface
"RRRRRRGALAGRRRRRRGALAG (also: fluorescent tag, immobilized on steel or titanium) [antimicrobial peptide immobilized covalently on nitrided steel or titanium; fluorescently tagged in the attachment studies]",preferential binding to steel type,[2]; comparison of eight steel types,highest binding affinity for alpha steel types
same,mean pixel counts (peptide attachment),"[2]; eight steel types (α1-3, β1-3, P1-P2), fluorescently tagged peptide",above 0
same,difference in pixel counts between treatments,"[3]; P2 steel group as printed in the beta steel paragraph, FIG. 5, H=13.7, p=0.033",significant difference
same,differences in pixel number between treatments,"[3]; PlasOx 1 steel, FIG. 6, H=15.4 p=0.017",significant
same,differences in pixel number between treatments,"[3]; PlasOx 2 steel, FIG. 6, H=12.7 p=0.048",significant
same,"pixel number, PlasOx 2 steel versus PlasOx 1 steel","[3]; following environmental treatment, in most instances, FIG. 6",higher for PlasOx 2 steel than PlasOx 1 steel
same,peptide coverage of nitrided steel before and after environmental treatments,"[3]; mild steel nitrided 19 hours at 440° C., room temperature, FIG. 2",remains at a similar level
same,peptide coverage of nitrided steel following environmental treatment,"[3]; nitrided mild steel, room temperature, FIG. 3",remains constant
same,difference in pixel counts between treatments,"[3]; α1 steels, FIG. 4, H=19.4 p=0.004",statistically significant difference
same,difference in pixel counts between treatments,"[3]; α2 steels, FIG. 4, H=12.4, p=0.053",no significant difference
same,difference in pixel counts between treatments,"[3]; α3 steels, FIG. 4, H=12.8, p=0.047",statistically significant difference
same,difference in pixel counts between treatments,"[3]; β1 steels, FIG. 5, H=10.6, p=0.103",no significant difference
same,difference in pixel counts between treatments,"[3]; β steels (number not given), FIG. 5, H=10.9, p=0.09",no significant difference
same,"mean CFU count, peptide coated versus control",[4],consistently higher mean CFU count on control pieces of metal
same,change of pixel number,[5]; after 2 weeks,remained relatively constant
same,change of pixel number,[5]; between 1 and 2 weeks,decreased considerably
same,pixels above threshold,"[5]; nitrided titanium, after 1, 2, 3 and 4 weeks in PBS solution",Pixels were observed above the threshold
same,peptide fluorescence after treatment,"[6]; control solution, trypsin or Dettol",remained similar
same,peptide fluorescence after treatment,[6]; mechanical agitation using sandpaper,"retained, albeit at a lower level"
same,absorbance (bacteria number growing on the surface),[7],very low absorbance values
same,percentage effectiveness of the coated surfaces compared to control surfaces,"[8]; hospital setting, all time points over three months, FIG. 11B",≥ 99%
same,inhibition of bacterial growth on coated surfaces,"[8]; hospital unit, three months, FIG. 11",complete inhibition of bacterial growth
same,colony forming units on the one coated plate that showed growth,"[8]; month 2, believed due to contamination during swabbing or plating",one
same,percentage effectiveness of the coated surfaces compared to control surfaces,"[9]; city hospital setting, all time points over three months, FIG. 12B",≥ 99%
same,levels of bacteria on peptide-coated surfaces,"[9]; door handles, Outpatients area of a city hospital, FIG. 12",1 cfu
same,effectiveness,"[9]; door handles, Outpatients area, Example 9",greater than 99%
same,inhibition of bacterial growth on treated surfaces,[10],inhibition of bacterial growth was still observed
